Reference: patent US20220204603A1 (PHARMABCINE, published 2022)

T1: human Ang2 (construct not stated) (human, UniProt O15123 19-496, limits assumed)
T1 sequence (looked up): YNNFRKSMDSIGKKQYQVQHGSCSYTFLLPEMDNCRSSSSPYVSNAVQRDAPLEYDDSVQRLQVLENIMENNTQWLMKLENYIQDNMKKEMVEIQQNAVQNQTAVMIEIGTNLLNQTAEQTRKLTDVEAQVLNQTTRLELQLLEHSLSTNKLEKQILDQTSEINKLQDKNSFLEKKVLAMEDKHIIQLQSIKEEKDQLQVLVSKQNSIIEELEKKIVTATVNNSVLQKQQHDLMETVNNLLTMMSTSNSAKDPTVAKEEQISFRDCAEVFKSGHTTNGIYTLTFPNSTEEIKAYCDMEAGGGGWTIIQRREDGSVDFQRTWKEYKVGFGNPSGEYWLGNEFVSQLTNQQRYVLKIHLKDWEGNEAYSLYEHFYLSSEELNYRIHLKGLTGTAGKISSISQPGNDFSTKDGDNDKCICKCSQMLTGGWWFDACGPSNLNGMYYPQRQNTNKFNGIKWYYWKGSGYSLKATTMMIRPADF

T2: biotinylated human Ang2 protein (human, UniProt O15123 19-496, limits assumed, biotinylated (sites not given))
T2 construct: also called hAng2
T2 sequence (looked up): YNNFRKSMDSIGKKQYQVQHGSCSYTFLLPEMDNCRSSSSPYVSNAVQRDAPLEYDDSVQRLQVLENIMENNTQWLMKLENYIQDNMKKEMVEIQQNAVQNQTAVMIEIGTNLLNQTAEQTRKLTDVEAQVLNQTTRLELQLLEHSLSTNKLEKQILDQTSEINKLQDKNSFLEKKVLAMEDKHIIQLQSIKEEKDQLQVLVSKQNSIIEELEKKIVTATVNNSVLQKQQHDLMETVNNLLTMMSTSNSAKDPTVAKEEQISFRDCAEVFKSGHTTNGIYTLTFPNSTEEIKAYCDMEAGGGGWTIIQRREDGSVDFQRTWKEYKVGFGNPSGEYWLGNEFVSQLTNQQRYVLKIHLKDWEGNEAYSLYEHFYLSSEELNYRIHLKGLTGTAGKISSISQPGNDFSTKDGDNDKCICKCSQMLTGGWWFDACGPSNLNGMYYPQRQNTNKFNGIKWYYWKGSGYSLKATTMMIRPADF

T3: His-tagged mouse Ang1 (sino, 50300-M07H) (mouse, UniProt O08538 20-498)
T3 construct: Bought protein; not shown: His tag
T3 sequence (looked up): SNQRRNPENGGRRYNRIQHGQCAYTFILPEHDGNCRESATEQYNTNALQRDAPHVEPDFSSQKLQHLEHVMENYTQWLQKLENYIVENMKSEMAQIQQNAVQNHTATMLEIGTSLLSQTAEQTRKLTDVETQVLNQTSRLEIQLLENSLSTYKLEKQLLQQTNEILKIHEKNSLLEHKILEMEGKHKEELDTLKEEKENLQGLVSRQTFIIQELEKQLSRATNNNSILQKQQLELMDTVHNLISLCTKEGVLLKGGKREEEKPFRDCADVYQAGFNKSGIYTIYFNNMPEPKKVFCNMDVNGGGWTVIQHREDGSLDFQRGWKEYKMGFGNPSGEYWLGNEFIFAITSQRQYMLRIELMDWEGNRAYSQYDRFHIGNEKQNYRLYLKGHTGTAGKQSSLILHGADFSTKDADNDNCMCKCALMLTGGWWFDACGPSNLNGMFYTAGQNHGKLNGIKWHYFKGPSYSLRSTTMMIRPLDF

B1: No. 41 anti-Ang2 antibody (IgG) (antibody, V domains shown)
VH: QVQLVESGGGLVQPGGSLRLSCEASGFAFGRYEMNWVRQAPGKGLEWIAYIDTGGGAKVYADSVKGRFTISRDDSKNSLYLQMNSLRAEDTAVYYCTTEGLMNGLHFDMWGQGTMITVSS
VL: DIQMTQSPSTLSASVGDRVAITCRASQAISTWLAWYQQKPGKAPKLLIYTASTLESGVPSRFSGSGSGTDFTLTINSLQPDDFATYYCQQLNSYPYTFGGGTKVEIKR
notes: IgG form: VH cloned into Invivogen pfusess-hchg1, VL into Invivogen pfuse2ss-hclk; also called 2B2
B2: No. 3 anti-Ang2 antibody (IgG) (antibody, V domains shown)
VH: QMQLVQSGGGLVQPGRSLKLSCAASGFSFDDYAMHWVRQAPGKGLEWVATIKDDGSQTYYVDSVKGRFTISRDNAKSSLFLQMNSLRAEDTAVYYCTTEGLMNGLHFDMWGQGTMVTVSS
VL: LVLTQPPSVSGAPGQGVTISCTGSSSNIGAGYDVHWYQQFPGTAPKLLISGNNNRPSGLPDRFSGSKSGTSASLAITGLQAEDEADYYCQSYDSRLGVVFGGGTKLTVLG
notes: IgG form: VH cloned into Invivogen pfusess-hchg1 (heavy chain constant region), VL into Invivogen pfuse2ss-hclk (light chain constant region); Expressed in Expi293F, purified on Protein A; also called 1D10
B3: No. 8 anti-Ang2 antibody (IgG) (antibody, V domains shown)
VH: QVQLVESGGGLVKPGGSLRLSCAASGFTFSSYSMNWVRQAPGKGLEWVSSISASDGATYYADSVRGRFTISRDNSRSTLYLQMNSLRAEDTAVYYCAKILAGYSGPMGGMDVWGQGTTVTVSS
VL: DIQMTQSPSSLSASVGDRVTITCRASRDISNYLAWYQQKPGKAPKSLIYGASNLQSGVSSQFSGSGSGTDFTLTINSLQPEDSATYYCQQYYSYPLTFGGGTKVDIKR
notes: IgG form: VH cloned into Invivogen pfusess-hchg1, VL into Invivogen pfuse2ss-hclk; also called 3A10
B4: No. 46 anti-Ang2 antibody (IgG) (antibody, V domains shown)
VH: QVQLVESGGGLVQPGRSLRLSCAASGFTFDDCAMHWVRQAPGKGLEWVSGISGNSKNVAYADSVKGRFSISRDDAKNSLYLQMNSLRAEDTAVYYCARDPAYSQFDYWGQGTLITVSS
VL: QSALTQPPSLSATPGQRVTISCSGSSSNVGGYPVNWYQQVPGAAPKLLMYTDYKRPSGVPDRFFGSKSGTSASLAISGLQSEDEADYYCATWDDNLNGYVFGTGTKVTVLG
notes: IgG form: VH cloned into Invivogen pfusess-hchg1, VL into Invivogen pfuse2ss-hclk; also called 3C6
B5: No. 4 anti-Ang2 antibody (IgG) (antibody, V domains shown)
VH: QVQLVESGAEVKRPGESLRISCKTSGYSFTSYWIHWVRQMPGKELEWMGSIYPGNSDTRYSPSFQGHVTISADSSSSTAYLQWSSLKASDTAMYYCTTEGLMNGLHFDMWGQGTMVTVSS
VL: DIVMTQTPLSLPVTPGEPASISCRSSQSLLHSLGDNYLDWYLQKPGQSPQLLIYLGSKRAAGVPDRFSGSGSGTDFTLKISRVEAEDVGVYYCMQSLQTPPYTFGQGTKLEIKR
notes: IgG form: VH cloned into Invivogen pfusess-hchg1, VL into Invivogen pfuse2ss-hclk; also called 2D8

Columns and labels:
[1] = biological target: T1, human Ang2 (construct not stated); assay: cell-based or functional assay
[2] = biological target: T1, human Ang2 (construct not stated); assay: SPR Biacore T200, antibody captured on protein A chip, Ang2 as analyte, 1:1 model
Protocol: To analyze the binding affinity of the selected anti-Ang2 antibodies, affinity analysis for human Ang2 and mouse Ang2 was performed using BIACORE® T200 (GE Healthcare). A protein A sensor chip was used, and an experiment was conducted in accordance with the manufacturer's manual. Detailed analysis conditions are as follows. 2000 response units (RU) of protein A were immobilized, 25 RU of anti-Ang2 antibody candidates were used for binding, and various concentrations of human Ang2 and mouse Ang2 were allowed to bind. The starting concentrations for analysis are 100 nM and 150 nM, respectively. The analysis proceeded at a flow rate of 30 μl/min, the binding and dissociation time of human Ang2 was measured as 300 seconds and 2000 seconds, respectively, and the binding and dissociation time of mouse Ang2 was analyzed as 300 seconds and 1000 seconds, respectively. Analysis was performed using a 1:1 binding model as an analytical model.

[3] = biological target: T2, biotinylated human Ang2 protein; assay: competition ELISA: antibody preincubated with biotinylated hAng2, binding to coated human Tie2-Fc
Protocol: (§1) 1 μg/ml (100 μl per well) of a human Ti32-Fc (R&D Systems, 313-TI) or mouse Tie2-Fc (R&D Systems, 762-T2-100) solution, an integrin α3/β1 solution (R&D systems, 2840-A3-050), or an integrin α5/β1 solution (R&D systems, 3230-A5-050) was added to a 96-well immunoplate (Nunc, US) and then allowed to stand overnight at 4° C. for adsorption. The next day, the plate was washed four times with PBS containing 0.05% Tween-20 (hereinafter, referred to as PBST), and 200 μl of a 2% BSA/PBST solution was added to each well and then allowed to stand at room temperature for 1 hour to perform blocking. Anti-Ang2 candidate antibodies were serially diluted 4-fold at a maximum of 1000 nM, and biotinylated human Ang2 protein was made to a final concentration of 100 ng/mL or 625 ng/mL, followed by previous binding at room temperature for 1 hour. […] The plate was washed three times with PBST, 100 μl of HRP-conjugated streptavidin (R&D Systems, DY998) diluted to 1:200 was added to allow a reaction to occur at room temperature for 1 hour, thereby inducing binding, and the plate was washed four times with PBST, followed by color development using 100 μl of a TMB substrate reagent. The color development reaction was stopped by adding 50 μl of 2N H₂SO₄, and a Sunrise microplate reader (TECAN, CH) was used to measure specific absorbance OD₄₅₀ (FIGS. 4 and 5).

[4] = biological target: T2, biotinylated human Ang2 protein; assay: competition ELISA: antibody preincubated with biotinylated hAng2, binding to coated integrin α5/β1
Protocol: as §1

[5] = biological target: T3, His-tagged mouse Ang1 (sino, 50300-M07H); assay: binding ELISA, His-tagged mouse Ang1 coated at 1 µg/ml, detection with HRP anti-human IgG(kappa) [panel 'mouse Ang1 binding ELISA']
Protocol: 1 μg/ml (100 μl per well) of a His-tagged human (R&D systems, 623-AN/CF) or mouse (sino, 50298-M07H) Ang2 solution or a His-tagged human (R&D systems, 923-AN/CF) or mouse (sino, 50300-M07H) Ang1 solution was added to a 96-well immunoplate (Nunc, US) and allowed to stand overnight at 4° C. for adsorption. The next day, the solution was washed three times with PBS containing 0.05% Tween-20 (hereinafter, referred to as PBST), and 200 μl of a 2% BSA/PBST solution was added to each well and then allowed to stand at room temperature for 2 hours to perform blocking. After washing three times with PBST, 100 μl of each test antibody solution was added to each well according to concentration to cause binding at room temperature for 1 hour, and then washing was performed three times with PBST, 100 μl of HRP-conjugated goat anti-human IgG(kappa) (bethyl lab #A80-115P) diluted to 1:2000 was added and allowed to react at room temperature for 1 hour, thereby inducing binding, and after washing three times with PBST, color development was performed using 100 μl of a TMB substrate reagent. The color development reaction was stopped by adding 50 μl of 2N H₂SO₄, and a Sunrise microplate reader (TECAN, CH) was used to measure specific absorbance OD₄₅₀₋₆₃₀ (FIG. 3).

Binder	IC50 of Tie2 phosphorylation (Phospho-Tie2 ELISA) in human Tie2-overexpressing cells treated with human Ang2 (5 µg/ml) preincubated with antibody [1]	Kd [2]	koff [2]	kon [2]	IC50 [3]	IC50 [4]	binding result [5]
B1	11 nM	0.243 nM	7.77e-05 s⁻¹	320000 M⁻¹ s⁻¹	0.475 nM	1.49 nM	no binding (tested: 2 mg/ml (unit as read in the legend))
B2	8.53 nM	0.127 nM	4.22e-05 s⁻¹	334000 M⁻¹ s⁻¹	0.491 nM	1.53 nM	no binding (tested: 2 mg/ml (unit as read in the legend))
B3	20.2 nM	0.163 nM	4.37e-05 s⁻¹	268000 M⁻¹ s⁻¹	0.495 nM	1.89 nM	no binding (tested: 2 mg/ml (unit as read in the legend))
B4	10.1 nM	0.314 nM	8.62e-05 s⁻¹	274000 M⁻¹ s⁻¹	0.337 nM	1.9 nM	no binding (tested: 2 mg/ml (unit as read in the legend))
B5	12.3 nM	0.217 nM	5.93e-05 s⁻¹	273000 M⁻¹ s⁻¹	0.462 nM	1.57 nM	no binding (tested: 2 mg/ml (unit as read in the legend))
